Ten molecules from patent publication US20240166725A1 (BEIJING WISDOMAB BIOTECHNOLOGY, published 2024) can be followed below.

Substitutions are numbered along the chain they refer to. Read-outs that look alike come from different tables or passages of the source. Where only a bound is given, the exact number is not on record here.

Assay [1] has as its target T1, gH/gL protein of varicella-zoster virus, native, on VZV (Oka) virions and VZV-infected MRC5 cells (varicella-zoster virus (Oka), UniProt Q775J3 18-841). Put plainly: cell-based or functional assay.
Assay [2] has as its target T1, gH/gL protein of varicella-zoster …. Put plainly: cell-based or functional assay. The source holds these as a separate data set.
For assay [3], the target named is T2, varicella-zoster virus recombinant protein gH-His/gL (varicella-zoster virus strain Oka, UniProt Q775J3 18-795; Q9J3N1 23-160). Put plainly: competition ELISA on coated gH/gL; competitor: phage S7A10 (same clone), bound phage detected with HRP-anti-M13. For orientation: An ELISA detects its analyte on a solid surface through an enzyme-linked reagent.
T2 sequence (Q775J3 18-795, tags left off, chain 1 of 2): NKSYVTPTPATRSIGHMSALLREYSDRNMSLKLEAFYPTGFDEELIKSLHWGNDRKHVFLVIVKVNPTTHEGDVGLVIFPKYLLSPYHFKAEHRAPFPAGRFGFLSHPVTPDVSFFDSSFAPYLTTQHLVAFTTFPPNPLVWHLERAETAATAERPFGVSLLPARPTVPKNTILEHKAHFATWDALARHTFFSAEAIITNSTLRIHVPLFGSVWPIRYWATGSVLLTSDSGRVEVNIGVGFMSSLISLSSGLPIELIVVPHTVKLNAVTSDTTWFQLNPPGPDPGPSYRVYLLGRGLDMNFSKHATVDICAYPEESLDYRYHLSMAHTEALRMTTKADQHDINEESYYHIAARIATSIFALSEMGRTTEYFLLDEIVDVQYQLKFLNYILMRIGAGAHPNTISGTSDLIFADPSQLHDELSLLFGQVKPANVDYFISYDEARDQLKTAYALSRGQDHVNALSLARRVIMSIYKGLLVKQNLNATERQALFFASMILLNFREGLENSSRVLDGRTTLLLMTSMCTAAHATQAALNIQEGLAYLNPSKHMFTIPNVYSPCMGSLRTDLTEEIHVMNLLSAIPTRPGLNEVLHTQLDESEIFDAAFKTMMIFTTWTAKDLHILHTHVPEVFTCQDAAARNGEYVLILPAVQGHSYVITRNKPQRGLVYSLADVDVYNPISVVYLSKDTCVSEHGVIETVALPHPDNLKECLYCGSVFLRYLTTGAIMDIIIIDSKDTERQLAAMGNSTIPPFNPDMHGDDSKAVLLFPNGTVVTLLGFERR
T2 sequence (Q9J3N1 23-160 limits assumed, chain 2 of 2): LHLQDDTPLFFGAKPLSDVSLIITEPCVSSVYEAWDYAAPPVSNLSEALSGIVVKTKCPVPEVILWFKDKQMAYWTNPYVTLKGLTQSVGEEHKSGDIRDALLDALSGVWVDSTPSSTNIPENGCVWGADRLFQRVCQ
Assay [4] concerns the target T1, gH/gL protein of varicella-zoster …. Put plainly: cell-based or functional assay. The source holds these as a separate data set.
Assay [5] shares this target. Put plainly: cell-based or functional assay. The source holds these as a separate data set.
Assay [6] concerns the target T2, varicella-zoster virus recombinant …. Put plainly: competition ELISA on coated gH/gL; competitor: phage H4H8-L1B7 (same clone), bound phage detected with HRP-anti-M13.
Assay [7] has the same target. Put plainly: solid-phase phage display screening on gH-His/gL.
For assay [8] the target is unchanged. Put plainly: competition ELISA on coated gH/gL; competitor: phage S8E1 (same clone), bound phage detected with HRP-anti-M13.
Assay [9] shares this target. Put plainly: competition ELISA on coated gH/gL; competitor: phage S8B8 (same clone), bound phage detected with HRP-anti-M13.
Assay [10] has the same target. Put plainly: competition ELISA on coated gH/gL, scFv phage at fixed concentration, anti-M13 detection.

T1 sequence (Q775J3 18-841): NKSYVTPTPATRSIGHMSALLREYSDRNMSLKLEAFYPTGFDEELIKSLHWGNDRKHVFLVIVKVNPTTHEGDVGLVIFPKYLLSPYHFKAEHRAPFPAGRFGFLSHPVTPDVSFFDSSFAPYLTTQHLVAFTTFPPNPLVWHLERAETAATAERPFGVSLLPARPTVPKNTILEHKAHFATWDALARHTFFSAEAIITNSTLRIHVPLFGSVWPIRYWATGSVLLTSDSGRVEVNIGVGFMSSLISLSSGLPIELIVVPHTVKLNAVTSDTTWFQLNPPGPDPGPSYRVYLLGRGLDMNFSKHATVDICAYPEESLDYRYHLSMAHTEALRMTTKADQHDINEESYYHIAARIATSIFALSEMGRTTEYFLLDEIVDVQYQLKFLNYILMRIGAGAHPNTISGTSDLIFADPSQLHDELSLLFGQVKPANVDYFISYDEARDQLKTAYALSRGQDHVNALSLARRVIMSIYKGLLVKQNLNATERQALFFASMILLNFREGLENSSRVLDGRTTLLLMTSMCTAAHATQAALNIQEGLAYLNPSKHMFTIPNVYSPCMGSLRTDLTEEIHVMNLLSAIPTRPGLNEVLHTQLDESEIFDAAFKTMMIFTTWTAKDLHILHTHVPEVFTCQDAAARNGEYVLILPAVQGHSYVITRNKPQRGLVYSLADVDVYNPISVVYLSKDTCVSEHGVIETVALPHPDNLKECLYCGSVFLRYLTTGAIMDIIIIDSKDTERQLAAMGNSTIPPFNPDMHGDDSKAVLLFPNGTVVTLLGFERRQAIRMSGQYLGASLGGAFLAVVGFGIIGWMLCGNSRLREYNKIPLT

B1: S7A10-IgG1 (antibody, V domains shown)
VH: QVQLKESGPGPVKPSQSLSLTCSVTGYSITSGNYWNWVRQFPGNKLEWMAYISYDGSTYYNPSLKNRISITRDTSKNQFFLKLNSVTTEDTATYYCAEGYYGYWFAYWGQGTLVTVSA
VL: ENVLTQSPAILSASPGEKVTMTCRASSSVSYMHWYQQKPGSSPKPWIYATSNLASGVPARFSGSGSGTSYSLTISRVEAEDAATYYCQQWSSNPFTFGSGTKLEIKR
notes: also called monoclonal antibody S7A10
Regarding B1, the “PRNT50(µg/mL), plaque reduction, antibody added 24 h after infection of MRC5 cells (cell-to-cell transmission)” value in assay [1] stood at 0.93 µg/mL. The “PRNT50 (µg/mL), plaque reduction neutralisation of VZV (Oka) on MRC5 cells” value in [2] was 0.34 µg/mL. In addition, the “IC50 (read off the curve)” value in assay [3] is approximately 2 nM.

B2: H4H8-L13C7-IgG1 (antibody, V domains shown)
VH: EVQLVESGGGVVQPGRSLRLSCGASGFTFNTYAMHWVRQAPGKGMEWVAVISYGGGNRYYAASVKGRFTISRDNSKNTLFLQLNTLRPEDTAVYYCARARDNHYFFGMDVWGRGTTVTVSS
VL: DIQMTQSPSSVSASVGDRVTITCRASQGISSWLAWYQQKPGKAPKLLIYAASSLQSGVPSRFSGSGSGTDFTLTISSLQPEDFATYYCQQATYFPINFGGGTKVEIKR
In the case of B2, the “PRNT50(µg/mL), plaque reduction, antibody added 24 h after infection of MRC5 cells (cell-to-cell transmission)” value in assay [4] was more than 2 µg/mL. Moreover, the “PRNT50(µg/mL), plaque reduction neutralisation of VZV on MRC5 cells” value in assay [5] was more than 0.4 µg/mL.

B3: H4H8-L14H8-IgG1 (antibody, V domains shown)
VH: B2 VH
VL: B2 VL with A91S, T92S, N97A
Turning to B3, the “PRNT50(µg/mL), plaque reduction, antibody added 24 h after infection of MRC5 cells (cell-to-cell transmission)” value in [4] is 0.31 µg/mL. Also, the “PRNT50(µg/mL), plaque reduction neutralisation of VZV on MRC5 cells” value in assay [5] stood at 0.016 µg/mL.

B4: H4H8-L13C1-IgG1 (antibody, V domains shown)
VH: B2 VH
VL: B2 VL with Q90E, A91G, T92F
In the case of B4, the “PRNT50(µg/mL), plaque reduction, antibody added 24 h after infection of MRC5 cells (cell-to-cell transmission)” value in [4] is 0.28 µg/mL. Further, in assay [5], the “PRNT50(µg/mL), plaque reduction neutralisation of VZV on MRC5 cells” value was found to be 0.016 µg/mL.

B5: H4H8-L1B7-IgG1 (antibody, V domains shown)
VH: B2 VH
VL: B2 VL with T92N, Y93S, I96L, N97T
notes: also called H4H8-LIB7-IgG1; monoclonal antibody H4H8-L1B7
Turning to B5, the “IC50 (read off the curve)” value in assay [6] was approximately 2 nM.

B6: single chain fragment variable S8E1 (phage-displayed) (scFv)
scFv: EVKLVESGPGLVKPSQSLSLTCSVTGYSITSGYYWNWIRQFPGNKLEWMGYISYDGSNNYNTSLKNRISITRDTSKNQFFLKLNSVTTEDTATYYCAREDVNYPPYALDYWGQGTSVTVSSGGGGSGGGGSGGGGSSIVMTQTPLSLPVSLGDQASISCRSSQSLVHSNGNTYLHWYLQKPGQSPKLLIYKVSNRFSGVPDRFSGSGSGTDFTLKISRVEAEDLGVYFCSQSTHVPWTFGGGTKLEMK
notes: also called clone S8E1; phage S8E1
Consider B6, for which the binding result in [7] is on record as “binds”.

B7: S8E1-IgG1 (antibody, V domains shown)
VH: EVKLVESGPGLVKPSQSLSLTCSVTGYSITSGYYWNWIRQFPGNKLEWMGYISYDGSNNYNTSLKNRISITRDTSKNQFFLKLNSVTTEDTATYYCAREDVNYPPYALDYWGQGTSVTVSS
VL: SIVMTQTPLSLPVSLGDQASISCRSSQSLVHSNGNTYLHWYLQKPGQSPKLLIYKVSNRFSGVPDRFSGSGSGTDFTLKISRVEAEDLGVYFCSQSTHVPWTFGGGTKLEMKR
notes: also called monoclonal antibody S8E1
In the case of B7, the “PRNT50(µg/mL), plaque reduction, antibody added 24 h after infection of MRC5 cells (cell-to-cell transmission)” value in assay [1] was 2.82 µg/mL. Also, in assay [2], the “PRNT50 (µg/mL), plaque reduction neutralisation of VZV (Oka) on MRC5 cells” value stood at 0.38 µg/mL. In addition, the “IC50 (read off the curve)” value in [8] was approximately 0.5 nM.

B8: single chain fragment variable S7A10 (phage-displayed) (scFv)
scFv: QVQLKESGPGPVKPSQSLSLTCSVTGYSITSGNYWNWVRQFPGNKLEWMAYISYDGSTYYNPSLKNRISITRDTSKNQFFLKLNSVTTEDTATYYCAEGYYGYWFAYWGQGTLVTVSAGGGGSGGGGSGGGGSENVLTQSPAILSASPGEKVTMTCRASSSVSYMHWYQQKPGSSPKPWIYATSNLASGVPARFSGSGSGTSYSLTISRVEAEDAATYYCQQWSSNPFTFGSGTKLEIK
notes: also called clone S7A10; phage S7A10
As to B8, the binding result in assay [7] is “binds”.

B9: S8B8-IgG1 (antibody, V domains shown)
VH: EVKLVESGGGLVQPGGSLKLSCAASGFTFSSYTMSWVRQTPEKRLEWVAFISNGGDNNYYADTVKGRFIISRDNAKNTLYLQMSSLKSEDTAMYYCARHNGNWGFAYWGQGTLVTVSA
VL: QNVLTQSPTTMAASPGEKITITCSASSSISSNYLHWYQQKPGFSPKLLIYRTSNLASGVPARFSGSGSGTSYSLTIGTMEAEDVATYYCQQGSSIPLTFGAGTKLEIKR
notes: also called monoclonal antibody S8B8
As to B9, the “PRNT50(µg/mL), plaque reduction, antibody added 24 h after infection of MRC5 cells (cell-to-cell transmission)” value in assay [1] worked out at 3.21 µg/mL. Besides, the “PRNT50 (µg/mL), plaque reduction neutralisation of VZV (Oka) on MRC5 cells” value in assay [2] was 0.38 µg/mL. Besides, the “IC50 (read off the curve)” value in assay [9] is approximately 0.3 nM.

B10: single chain fragment variable S8B8 (phage-displayed) (scFv)
scFv: EVKLVESGGGLVQPGGSLKLSCAASGFTFSSYTMSWVRQTPEKRLEWVAFISNGGDNNYYADTVKGRFIISRDNAKNTLYLQMSSLKSEDTAMYYCARHNGNWGFAYWGQGTLVTVSAGGGGSGGGGSGGGGSQNVLTQSPTTMAASPGEKITITCSASSSISSNYLHWYQQKPGFSPKLLIYRTSNLASGVPARFSGSGSGTSYSLTIGTMEAEDVATYYCQQGSSIPLTFGAGTKLEIK
notes: also called clone S8B8; phage S8B8
Take B10: the binding result in assay [10] is on record as “binds”.
